Results taken from patent US7479478B2, “Human parathyroid hormone modifications, preparation and use” (The General Hospital Corporation, priority 1998, dated 2009).
“Also recorded” adds a separate entry of the source. Values belong to the substance of their own block, whether it stands above or below them. No end group written: not given here.

Legend:
[1] = biological target: T1, human PTH-1 receptors (Homo sapiens, UniProt Q03431); test: Intracellular cAMP accumulation (adenylyl cyclase, AC, activation) in HKRK B7 cells; format: cell-based; conditions: for Cyclic AMP accumulation (% Maximum): % of maximal response to hPTH-(1-34), HKRK B7; for AC activation (cAMP accumulation), result in words: HKRK B7 cells, compared with hPTH-(1-34) or parent peptide
T1 construct: expressed in transfected cells
T1 sequence (Q03431 27-593): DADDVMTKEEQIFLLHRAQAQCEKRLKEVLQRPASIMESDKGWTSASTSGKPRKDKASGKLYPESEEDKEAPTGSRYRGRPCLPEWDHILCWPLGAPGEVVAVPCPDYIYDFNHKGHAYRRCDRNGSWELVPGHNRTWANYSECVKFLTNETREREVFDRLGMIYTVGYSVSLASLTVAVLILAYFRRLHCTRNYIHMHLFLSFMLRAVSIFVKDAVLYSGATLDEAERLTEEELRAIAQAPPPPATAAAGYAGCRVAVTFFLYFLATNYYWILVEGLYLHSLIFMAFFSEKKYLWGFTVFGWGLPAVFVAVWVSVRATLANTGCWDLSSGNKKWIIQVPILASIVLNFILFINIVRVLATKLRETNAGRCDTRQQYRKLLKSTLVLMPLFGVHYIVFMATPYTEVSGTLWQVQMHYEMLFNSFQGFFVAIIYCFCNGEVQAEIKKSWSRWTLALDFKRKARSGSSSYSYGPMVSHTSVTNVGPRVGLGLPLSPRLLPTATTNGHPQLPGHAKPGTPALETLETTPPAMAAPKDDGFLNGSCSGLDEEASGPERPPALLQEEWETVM
Experimental: HKRK B7 or EW5 cells (32), subclones of LLC-PKI renal epithelial cells that stably express human or rat PTH-1 receptors (950,000 and 320,000 receptors/cell, respectively), were maintained under 5% CO2 in air in Dulbecco's modified essential medium containing 7% fetal bovine serum (FBS) and 1% penicillin/streptomycin (GIBCO-BRL, Grand Island, N.Y.). HEK-293 and COS-7 cells were cultured similarly, except that 10% FBS was used in the medium. Cells were seeded into 24-well plates two days before assay at a density of 2-2.5×10^5 cells/well (HKRK B7 or EW 5 cells) or 6×10^5 cells/well (in 6-well plates) (HEK-293 cells). In experiments involving HEK-293 cells, DNA transfections were performed 24 hr after plating and inositol radiolabel was added 24 hr thereafter (see below). COS-7 cell transfections were performed as previously described (Gardella, T. J., et al., Endocrinology 132(5):2024-2030 (1993)) Intracellular cAMP accumulation, PLC activation and PTHR binding affinity were measured as previously reported (Bringhurst, F. R., et al., Endocrinology 132(5):2090-2098 (1993); Guo, J., et al., Endocrinology 136(9):3884-3891 (1995)). Intracellular cAMP accumulation was measured in extracts of cells that were exposed to human PTH peptides in the presence of isobutylmethyxanthine (IBMX, 1 mM) at 37° C. for 15 min. After terminating the reactions by aspiration and freezing in liquid nitrogen, cell monolayers were extracted with 50 mM HCl and cAMP was measured using a radioimmunoassay kit (Dupont-New England Nuclear, Boston, Mass.).

[2] = biological target: T1, human PTH-1 receptors; test: PLC activation (IP3 formation) in HKRK B7 cells; format: cell-based; conditions: for IP3 Formation (% Maximum): % of maximal response to hPTH-(1-34); for EC50: read-out: EC50 for PLC activation (IP3 formation); for PLC activation, percent of basal: 1000 nM peptide; for PLC activation (IP3 formation), result in words: up to 1000 nM or 10 μM
Experimental: (§1) HKRK B7 or EW5 cells (32), subclones of LLC-PKI renal epithelial cells that stably express human or rat PTH-1 receptors (950,000 and 320,000 receptors/cell, respectively), were maintained under 5% CO2 in air in Dulbecco's modified essential medium containing 7% fetal bovine serum (FBS) and 1% penicillin/streptomycin (GIBCO-BRL, Grand Island, N.Y.). HEK-293 and COS-7 cells were cultured similarly, except that 10% FBS was used in the medium. Cells were seeded into 24-well plates two days before assay at a density of 2-2.5×10^5 cells/well (HKRK B7 or EW 5 cells) or 6×10^5 cells/well (in 6-well plates) (HEK-293 cells). In experiments involving HEK-293 cells, DNA transfections were performed 24 hr after plating and inositol radiolabel was added 24 hr thereafter (see below). COS-7 cell transfections were performed as previously described (Gardella, T. J., et al., Endocrinology 132(5):2024-2030 (1993))
PLC was activated by PTH agonists in the presence of 30 mM LiCl at 37° C. for 30 min after 16 hr of labeling with [^3H]myo-inositol (3 uCi/ml) in serum-free medium containing 0.1% bovine serum albumin. The reactions were stopped by rapid aspiration and addition of cold 5% TCA. Water-soluble radiolabeled inositol trisphosphate (IP3) was isolated after ether extraction by ion-exchange chromatography (Guo, J., et al., Endocrinology 136(9):3884-3891 (1995)). In experiments involving HEK 293 cells, cells previously transfected with human PTHR cDNA (in the pcDNA1 expression vector HKRK) using Lipofectamine (Gibco BRL) were labeled with [^3H]myo-inositol and assayed as described above, except that total water-soluble [^3H]inositol polyphosphates were collected as a single fraction from the ion-exchange columns.

[3] = system: membrane-bound PKCs; conditions: osteoblast-like ROS 17/2 cells; Neugebauer et al. 1995; cited from earlier work
[4] = biological target: T1, human PTH-1 receptors; test: Radioligand competition binding with 125I-[Nle8,21,Tyr34]rat PTH-(1-34) in HKRK B7 cells
Experimental: as §1, with “(1993)) Radioligand competition binding assays were performed at 2-8° C. for 6 hr using ^125I-[Nle^8,21,[…]]rat PTH-(1-34) (100,000 cpm/well) in the presence or absence of non-radioactive hPTH-(1-34) analogs. Cell layers were washed three times before solubilization for determination of cell-associated radioactivity.” for “(1993))”

[5] = biological target: T1, human PTH-1 receptors; conditions: HKRK B7 cells; Takasu and Bringhurst 1998; cited from earlier work
[6] = biological target: T1, human PTH-1 receptors; conditions: HKRK B7 cells; Takasu and Bringhurst 1998; cited from earlier work; remark: listed apart in the source

Cyclic AMP accumulation (% Maximum) ([1]; 0.01 nM): −0.2 ± 0.1 % Maximum | Cyclic AMP accumulation (% Maximum) ([1]; 0.1 nM): 0.6 ± 0.3 % Maximum | Cyclic AMP accumulation (% Maximum) ([1]; 1 nM): 7 ± 0.6 % Maximum | Cyclic AMP accumulation (% Maximum) ([1]; 10 nM): 50 ± 5.1 % Maximum | Cyclic AMP accumulation (% Maximum) ([1]; 100 nM): 92 ± 15 % Maximum | Cyclic AMP accumulation (% Maximum) ([1]; 1000 nM): 99 ± 8.8 % Maximum | IP3 Formation (% Maximum) ([2]; 1000 nM, HKRK B7): 1.5 ± 4.8 % Maximum | IP3 Formation (% Maximum) ([2]; 10000 nM, HKRK B7): 6.9 ± 10 % Maximum
Substance: AVSEIQLMHNLGKHLNSMRRVEWLRKK [[Ala^1,Arg^19]hPTH-(1-27)]

EC50 ([2]; HKRK B7 cells): 200 nM | fold improvement of EC50 for PLC activation by the Arg^19 modification ([2]; over [Ala^1]hPTH-(1-28), HKRK B7): 5 fold
Substance: AVSEIQLMHNLGKHLNSMRRVEWLRKKL-NH2 [[Ala^1,Arg^19]hPTH-(1-28)]
AC activation (cAMP accumulation), result in words [1]: indistinguishable from that of hPTH-(1-34)

PLC activation, percent of basal ([2]; HKRK B7 cells): 178±12% of basal
Substance: hPTHrP(1-36): human PTH-related peptide fragment 1-36 [reference compound]

EC50 ([2]; HKRK B7 cells): 1000 nM
Substance: AVSEIQLMHNLGKHLNSMERVEWLRKKL-NH2 [[Ala^1]hPTH-(1-28)]

PLC activation, percent of basal ([2]; HKRK B7 cells): 105±5% of basal
Substance: [Tyr^0]hPTH-(1-34): hPTH-(1-34) with a tyrosine residue interposed at the N-terminus; purchased from Sigma (YSVSEIQLMHNLGKHLNSMERVEWLRKKLQDVHNF) [reference compound]

PLC activation (IP3 formation), result in words ([2]; HKRK B7 cells): did not elicit PLC activity
Substance: hPTH-(2-34): hPTH-(1-34) lacking residue 1 (VSEIQLMHNLGKHLNSMERVEWLRKKLQDVHNY) [reference compound]
AC activation (cAMP accumulation), result in words [1]: comparable in magnitude and sensitivity to that of hPTH-(1-34); also recorded: equipotent with hPTH-(1-34)

Substance: SerValSerGluIleGlnLeuMetHisAsnLeuGlyLysHis LeuAsnSerMetGluArgValGluTrpLeuArgLysLys (SVSEIQLMHNLGKHLNSMERVEWLRKK-NH2; listed as Homo sapiens) [hPTH-(1-27)]
stimulation of activity of membrane-bound PKCs [3]: incapable of stimulating

IC50 ([4]; read-out: apparent IC50 for binding): 100 nM | AC activation (cAMP accumulation), result in words [1]: unaffected | EC50 ([2]; HKRK B7 cells): 300 nM | PLC activation (IP3 formation), result in words ([2]; HKRK B7 cells): maximally activated
Substance: SVSEIQLMHNLGKHLNSMRRVEWLRKKL-NH2 [[Arg^19]hPTH-(1-28)]

AC activation (cAMP accumulation), result in words [1]: nearly identical
Substance: hPTH-(1-25): C-truncated human PTH peptide (SVSEIQLMHNLGKHLNSMERVEWLR)

Substance: hPTH-(1-30): C-truncated human PTH peptide (SVSEIQLMHNLGKHLNSMERVEWLRKKLQD-NH2; UniProt P01270 32-61, looked up, fragment)
PLC activation, previously reported [5]: fully activated | AC activation, previously reported [6]: fully activated | stimulation of activity of membrane-bound PKCs [3]: incapable of stimulating

PLC activation, percent of basal ([2]; HKRK B7 cells): 101±6% of basal
Substance: desamino-hPTHrP(1-36): hPTHrP(1-36) with the α-amino group removed [reference compound]

binding affinity, result in words [4]: unchanged | AC activation (cAMP accumulation), result in words [1]: unchanged | PLC activity as % of the hPTH-(1-34) maximum ([2]; 1000 nM, highest concentration tested, HKRK B7 cells): 25%
Substance: [Gly^1]hPTH-(1-34): hPTH-(1-34) with Gly^1 for Ser^1 [reference compound]

binding affinity, result in words [4]: modestly impaired
Substance: GlyValSerGluIleGInLeuMetHisAsnLeuGlyLysHisLeuAsnSerMetGluArgVal GluTrpLeuArgLysLysLeu (GVSEIQLMHNLGKHLNSMERVEWLRKKL; listed as Homo sapiens) [[Gly^1]hPTH-(1-28)]
PLC activation (IP3 formation), result in words ([2]; HKRK B7 cells): selectively eliminated PLC signaling, apart from a weak response at 10 μM

Substance: hPTH-(1-31): C-truncated human PTH peptide
PLC activation, previously reported [5]: fully activated | AC activation, previously reported [6]: fully activated

AC activation (cAMP accumulation), result in words [1]: only minimally active
Substance: hPTH-(1-24): C-truncated human PTH peptide (SVSEIQLMHNLGKHLNSMERVEWL)

Substance: hPTH-(1-26): C-truncated human PTH peptide (SVSEIQLMHNLGKHLNSMERVEWLRK)
stimulation of activity of membrane-bound PKCs [3]: incapable of stimulating

binding affinity, result in words [4]: indistinguishable from hPTH-(1-34) | AC activation (cAMP accumulation), result in words [1]: indistinguishable from hPTH-(1-34) | PLC activation (IP3 formation), result in words ([2]; HKRK B7 cells): indistinguishable from hPTH-(1-34)
Substance: [Ala^1]hPTH-(1-34): hPTH-(1-34) with Ala^1 for Ser^1 [reference compound]
